Assay: soluble on expression in E. coli; label from the status in PepcDB or PDB records

Sequence	soluble on expression in E. coli
MPVLSIIACGMLEDELVHVLSKDCELKQLIVVENGNNSGFLRKLRAGKCIPRTIPLDRVQMFFKTGFNPDFETLAKFLAPFPFLGKVCEKMNEKAGQQVSVVVNLLRLGLHADLELLKSEVFRNIREMAAFSDGILIFYGTCGHVLGELEKDFIDLGCPLFFLKDKAGEIVEDCISTALGGNEAYARAMLACRGKGTIYLTPMWASSWKNFEKGSGSKDLNNRYLKNSRYCLAVKIETGISYEPDFHQNVQEFARTFGMKTITLKGSSEITEQGYFDARKALVKNSDCLPKNHQDMEFLEHHHHHH	not soluble
MPVTLSFGNRHNYEINHSRLARLMSPDKEEALYMGVWDRFKDCFRTHKKQEVLEVLYTLIHGCERENQAELNVDITGMEKIHAFTQLKEYANPSQQDRFVMRFDMNQTQVLFEIDGKVIDKCNLHRLLNVSENCIFKVMEEDEEELFLKICIKYGEKISRYPELLEGFANKLKDAVNEDDDVKDEVYKLMRSGEDRKMECVEWNGTLTEEEKNKLRCLQMGSFNITTQFFKIGYWELEGEVLFDMVHPTLSYLLQAYKPSLSSDLIETNTMLFSDVLNKDYDDYQNNKREIDAILRRIYRSHNNTLFISEKSSCRNMLI	not soluble
MPVVIIVEHPRFISSAGPAVKGDTGQIMKYEKTKEFPHTKKFKAICYGAMMHPKRACKLTEQPTMTKQKRKNTFLTAYYRAKEICMIYSHIFINKLPKQKLTFKQFYVKK	not soluble
MPVVTAVGRRRGFAMPWVSTARSGAVMLANYSAGVCGRVSSPGLNVRKMCLKANTPGAVTWLDTPKRFLSTQTASRCMAVNSSDVVTGRIDPQVLHTPLNTDVDGYAHAMHSSINSGPLEYLPATFSVFPALGDVGDLGGGVGAATYALDRLSNMRSGACVGGGESPWRSLMT	not soluble
MPYPFKLPDLGYPYEALEPHIDAKTMEIHHQKHHGAYVTNLNAALEKYPYLHGVEVEVLLRHLAALPQDIQTAVRNNGGGHLNHSLFWRLLTPGGAKEPVGELKKAIDEQFGGFQALKEKLTQAAMGRFGSGWAWLVKDPFGKLHVLSTPNQDNPVMEGFTPIVGIDVWEHAYYLKYQNRRADYLQAIWNVLNWDVAEEFFKKA	soluble
MPYRNCWSKIMKKLINDVQDVLDEQLAGLAKAHPSLTLHQDPVYVTRADAPVAGKVALLSGGGSGHEPMHCGYIGQGMLSGACPGEIFTSPTPDKIFECAMQVDGGEGVLLIIKNYTGDILNFETATELLHDSGVKVTTVVIDDDVAVKDSLYTAGRRGVANTVLIEKLVGAAAERGDSLDACAELGRKLNNQGHSIGIALGACTVPAAGKPSFTLADNEMEFGVGIHGEPGIDRRPFSSLDQTVDEMFDTLLVNGSYHRTLRFWDYQQGSWQEEQQTKQPLQSGDRVIALVNNLGATPLSELYGVYNRLTTRCQQAGLTIERNLIGAYCTSLDMTGFSITLLKVDDETLALWDAPVHTPALNWGK	soluble
MQADPAIRRFAKKRNKRVDRMILDSNYMHTSIDRYFPNESKRRGRPDIIYLLLEMTQESILNHKNQLRTYVHTRNNQVIRISPITRMPKSYNRFIGLFEDLFEKRIITNNGKELLSMEESSLGDLINSIRRDRTILLHPKGEMRKPSEFISNANILIVIGGFSEGDFISDTSFINERYAIFDQELTIWSVANEMVANYERAVGLT	not soluble
MQAGPALMRILPISTIKGKLNEFVDAVSSTQDQITITKNGAPAAVLVGADEWESLQETLYWLAQPGIRESIAEADADIASGRTYGEDEIRAEFGVPRRPHDYKDDDDK	soluble
MQAIQNTQEIRRQADLTKAQWWLQQLCETDRMIVGRKRRDVQKLIHRLLSEPKGTSVPKSSPVNRLFPHPLSFELDPKWPAMDSFYNRISAAMRTIAPKKTASQQVVISCKQLKPAKLDMKTLRQVMEHELAELGDEKLQRMVCSFCYRAQPTHRLYTIEDVIKCQECWRGPFPSRTIFDALITDVAEKWAEKVAKRVECLYGNWDEKLTPMVRMLQNNVLLSEDIAALLRTCTDPHEFKEACEVIIITTIVFYLEYVDFRRSCEALMAIKPTVTYGQLFEIFQIYFPNRAKGIKTGDFL	not soluble
MQDLSGFTVPKGFRGANALKVQLWWAVQATLFAGSPQILYRWRAFLLRLFGAKIGKNVVIRPSVKITYPWKLTVGDYAWVGDDAVLYTLGEINIGAHAVISQKGYLCTGSHDYTSAHFDINAAPIVIGEKCWLATDVFVAPGVTIGHGTVVGARSSVFKSLPANAICRGNPAVVTRQRVQKVTP	not soluble
MQDSRPHPHDWNVSTDEAKRIQRRLASEVTERALPDGGETVAGIDVSVRDDTAQAAVSVLRLPELDVVDEATHRCEVPFPYVPGLLSFREMPAVLPALERLHSTPDVFVTDSHGAAHPRRFGLACHLGVLLDAPAIGVAKSILVGAPQGELGPEKGSRVPLVDDGETVGTVLRTRTDVNPVYVSVGHRCTLDGAADLMLDCSPRYKIPEPTRQAHKLSRAEGAAALEHHHHHH	soluble
MQEEVNQKTVALSIRTTKLTGKVLAAALGKVVRALQKHHRKALTPQGRQSVKKLMNHYGGKSAMPYVGAPKDFDRIAKEFHVDYAFHKVSPGHYLLFFKANQADAITAAFQKYSAKVLNKEQDKASILGQLRKFTEQIRTQAKEKQRTREAVKDGR	not soluble
MQELYLLGVVPSRRFEAVVNSLSKTLDGPKTILEFWVVYRPKDVPPNLPRQPDSWLRLCSNIESHDETDTEWSKNTQWSMYLEGNSEPKREDKCGIRPVNRAKLTNGSVTEFVEKMGYEFSHEYIIQGLEYFFFDTTVRIYQTLIPSQQRSIKPPFHPMNEEQPWILHVYTHVADASNQVAMAKAEANLTKVKTLLSAFCDLKNVRL	soluble
MQFGIFTIGDVTVDPTTGKAPTEGERIHAMTQIALKAEEVGLDVFATGEHHNPPFVPSSPTTHLAYIAAKTEKLLLSTSTTLITTNDPVKIAEDYTFLQHLSGGRVDLMMGRGNTGPVYPWFGKDIHQGIPLAIENYHLLRRLWREDVVNWQGKFRTPLQGYTSTPAPLDGVAPFVWHGSIRSTEIAEQAAFYGDGFFHNNIFWNKEHTAQMVNLYRQRFEHYGHGQADQAIVGLGGQVFIGDSEEEAKKTFRPYFDNAPVYGHGPSLEDFSRLTPLTVGTAEQVIERTMEFADWVGDYQRQLFLIDHAGLPLEMVLDQIERLGHDVVPEVRRRMEERRPDHVPSNPPTHQSLKANRNSPHFQINPGQPTE	not soluble
MQFPSSYWIESTQLPTFPPLSENIKTKVAVIGAGITGITTAYLLAKEGIDVVLIDSGLILNGTTGHTTAKITAQHDLIYDELINHFGMEKAGLYYESNNHALQFINETVQTYKIDCNFSNEDSYLYTTTDKGLRNLSKEYEAYQKLNIPCDYVQSLSIPIPVQSALVMKNQAQFHPLLYLKTLLAKFVEMGGKVYEQTTAMDVEKGDSPQIITKEGHRITCEYVVSCSHFPLEHHHHHH	not soluble
MQFSTLIRVAVFAVLAIATLADYDDNSVGTIPVAVDLDYFSNYVKKGGPQGPLRFGKRRGPSGPLRFGKRSSFHVAPAAEDVASWYQ	not soluble
MQGKNTIVTTGDYSIGLLSQTSGNLNTDTIIRVNSDGSVTPSFSDGDDTFIVTAGNHAVGVLACASPGSACACVSSLDEESTADTGSNENNAIAKLDMAKGEITTHGTESYAAYANGTVVKAGDTLDYTNASVTLTDVDITTHGDNAHAIAARQGTVSFNQGEIYTTGPDAAIAKIYNGGTVTLKNTSAVAHQGSGIVLESSINGQEATVDILSGSSLRSANEILYHKDETSNVTITDSEVSSAADVFINNIKGHLTVDATNSKITGSANISTDDNTHTYLSLSDNSTWDIKADSTVSNLTVDNSTVYISRADGRDVEPTRLTITENYVGNNGVLHLRTELDDDNSATDKVVINGNTSGTTRVKVTNAGGSGAYTLNGIEIISVEGESNGEFIKDSRIFAGAYEYSLTRGNTEATNKNWYLTNFQATSGGETNSGGSSAPTVAPTPVLRPEAGSYVANLAAANTLFVMRLNDRAGETRYIDPVTEQERSSRLWLRQIGGHNAWRDSNGQLRTTSHRYVSQLGGDLLTGGFTDSDSWRLGVMAGYARDYNLTHSSVSDYRSKGSVRGYSAGLYATWFADDISKKGAYIDSWAQYSWFKNSVKGDELAYESYSAKGATVSLEAGYGFALNKSFGLEAAKYTWIFQPQAQAIWMGVDHNAHTEANGSRIENDANNNIQTRLGFRTFIRTQEKNSGPHGDDFEPFVEMNWIHNSKDFAVSMNGVKVEQDGVSNLGEIKLGVNGNLNPAASVWGNVGVQLGDNGYNDTAVMVGLKYKF	not soluble
MQGLYIYGEVGRGKTMLMDLFFSCLPQKRKKRAHFNDFMADVHERINIYRQASKDGKTGQKTPILAVVEDLAQEAQVLCFDEFSVTDIADAMVLGRLISALFDKGIFFVATSNVAPDNLYYNGLEHHHHHH	not soluble
MQHYLLDSNQRLNVSFSKDSVAAYYQCFNQPYRKEVPPLMCASLWPKFDLFKKYANSELILTKSAINQTQKIEVDTIYVGHLEDIECRQTRNITRYTMALTLTKNDQHVITVTQTFIKAMK	not soluble
MQICQNPSCSNPFNPDGNRFCMSCGQSNFGKLLRNRYRVLGLLGEGGFSKTYAAEDADRLDAPCVIKQFFPQIQGTGQRSKAAEFFKEEAFRLYELGENHTQIPRLLAYFEQGSSLYLVQEFIKGLTLLQEVQQEPFNEEKIRQLLIDLLPVLDFVHFHHVIHRDIKPENIIRRDGDGKLVLIDFGGAKQVTQTSIARQATAIYTLGYAPTEQMAGFACHASDLYALGVTCVRLLTQCLPQQNLYGHIDDGLYDPMNGKWLWQEYLQDRGITISENLSQILDKLLKHLPSERYQSAAEVLHDLQVFTAIVEETQILPNTQTTLVPLAPATQRTKRPLPPLQTFEYEVVTVDTAGRIVNRDRTNTQILVEQLNKDITLEMLSIPGGAYLMGSPNFEGDADERPQHQVAIAPFFMGKYPVTQAQWRAVAGLPKIKQALNPYPSKYKGQNRPVENVSWHEVLEFCARLSEKTGREYRLPSEAEWEYACRAGTTTSFHFGETITPDLANFSDSDIHNIEAKTRYRKETTDVGNFRVANAFGLYDMHGLVWEWCADPWHNNYNGAPTDGSVWEAGGDIYRRVLRGGSWNFGAELCRSASRSWNESDGGLRICGFRVVFSAGLEHHHHHH	soluble
MQILQVRLKNLNSLVGEWEIDFTDPAFVSDGIFSITGPTGAGKTTVLDAICLALYGRTPRLGKVSKSENEIMSRQTGECFAEVTFAAQSGCFRCHWSQHRAHKKPDGELQNPRHELAEADSGKILETRLTEVGRQIEKITGMDFARFTRSMLLAQGEFAAFLQAAPDERAPILEQITGTEIYSRISIRVHETRVSARRELDRLSAGLNGIQPLT	not soluble
MQITEALISEPGEIRRFVQQAVDHWPNLLAFHFTLYSAEGIYGQQIQTFCSSFHRRVHERITEHNHTVSPSAPVVLRWLREQHEGAQIRCLLLLSQTSICHPRVGVMADEECAQLVDLLQQTWSVISAGGQCRVERCFRVARPGSSGQYVALKTAVQSFMSQVIATIIR	not soluble
MQITTTFRHMEQSEALKSYAAEKLERVKKYIDEPITAQVFLTVEKIRHIAEVTLTAKGITIKAAEETNDMYAALDAVIDKIERQLRRYKERLKEHKPSADDRALEIQKSVVTAESIEQRTEPVVIRSKTISIKPMSVEEAVMQMDLLHKDFLVFTDASTEAINVVYRRKDGNYGLIEPQRKLEHHHHHH	soluble
MQKEMEQDVKRFGQAAWATAIPRLEKLKLMLAQETLQLMRAKELCLNHKRAEIQGKMEDLPEQEKNINVVDELAIQFYEIQLELYEVKFEILKNKEILLTTQLDSLERLIKDEI	soluble

— the DeepSol protein solubility set
